We go through two proteins from PMC7641504 (International journal of mass spectrometry, 2020).

The data set deals with the molecule itself. The data set is described as follows: native MS.

B1: rabbit muscle pyruvate kinase (enzyme)
chain: not shown
modifications: acetylation of the N-terminal serine (after removal of the initiator methionine)
Regarding B1, the “stoichiometry N” value was 4.

B2: yeast alcohol dehydrogenase (enzyme, UniProt P00330 1-348, looked up)
chain: MSIPETQKGVIFYESHGKLEYKDIPVPKPKANELLINVKYSGVCHTDLHAWHGDWPLPVKLPLVGGHEGAGVVVGMGENVKGWKIGDYAGIKWLNGSCMACEYCELGNESNCPHADLSGYTHDGSFQQYATADAVQAAHIPQGTDLAQVAPILCAGITVYKALKSANLMAGHWVAISGAAGGLGSLAVQYAKAMGYRVLGIDGGEGKEELFRSIGGEVFIDFTKEKDIVGAVLKATDGGAHGVINVSVSEAAIEASTRYVRANGTTVLVGMPAGAKCCSDVFNQVVKSISIVGSYVGNRADTREALDFFARGLVKSPIKVVGLSTLPEIYEKMEKGQIVGRYVVDTSK
Take B2: the “stoichiometry N” value was 4.
